In US20150141489:
Changes are numbered by the printed parent chain.

B1: T7-tagged human Mnk2a (protein)
chain: MVQKKPAELQGFHRSFKGQNPFELAFSLDQPDHGDSDFGLQCSARPDMPASQPIDIPDAKKRGKKKKRGRATDSFSGRFEDVYQLQEDVLGEGAHARVQTCINLITSQEYAVKIIEKQPGHIRSRVFREVEMLYQCQGHRNVLELIEFFEEEDRFYLVFEKMRGGSILSHIHKRRHFNELEASVVVQDVASALDFLHNKGIAHRDLKPENILCEHPNQVSPVKICDFDLGSGIKLNGDCSPISTPELLTPCGSAEYMAPEVVEAFSEEASIYDKRCDLWSLGVILYILLSGYPPFVGRCGSDCGWDRGEACPACQNMLFESIQEGKYEFPDKDWAHISCAAKDLISKLLVRDAKQRLSAAQVLQHPWVQGCAPENTLPTPMVLQRNSCAKDLTSFAAEAIAMNRQLAQHDEDLAEEEAAGQGQPVLVRATSRCLQLSPPSQSKLAQRRQRASLSSAPVVLVGDHA
B2: Mnk2a-kinase dead (Mnk2aKD) (protein)
chain: B1 chain with K113A

Target: endogenous p38α, Q16539
Sequence (Q16539 2-360): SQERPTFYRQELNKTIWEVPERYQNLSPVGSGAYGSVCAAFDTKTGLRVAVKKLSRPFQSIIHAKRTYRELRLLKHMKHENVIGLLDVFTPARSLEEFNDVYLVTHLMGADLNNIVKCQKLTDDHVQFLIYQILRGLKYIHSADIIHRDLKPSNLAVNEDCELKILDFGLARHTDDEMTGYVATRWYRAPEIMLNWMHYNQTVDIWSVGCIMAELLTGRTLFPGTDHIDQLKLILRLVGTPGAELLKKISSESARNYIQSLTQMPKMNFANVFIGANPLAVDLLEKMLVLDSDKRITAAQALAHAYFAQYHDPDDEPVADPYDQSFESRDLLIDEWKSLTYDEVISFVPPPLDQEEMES

Row | Protein | p38-MAPK phosphorylation (Western blot) | p38 or MK2 phosphorylation (Western blot)
1 | B1 | only cells expressing Mnk2a showed increased p38-MAPK phosphorylation, indicating that p38-MAPK is activated | –
2 | B2 | – | it did not cause activation of p38, as measured by p38 or MK2 phosphorylation
